The DeepSol protein solubility set

Test: soluble on expression in E. coli; label from the status in PepcDB or PDB records

Row | Sequence | soluble on expression in E. coli
1 | MSLADHIDAIKKEMTSLSSQFNSNKSELERSKQDLSSMQLQMQQQMNDSVQQDLQKAHDTSKKLDNLARTFLALITDPSQQSQLLAEFESISKNGTPQMPVMTPPMMNAVAAMQPHMMMRNPMLNAMGGASPRVSGKGGAPQNGGMNGMSMMQHMQMQAFQAQMMQAQMFQQMPMMMPGMVPGMPPGMAGLPGMMPPNNMAAAMQHFNAQMAAAASVAVSTPSRNPSTSGAASRTRTPLTTSATNSPRPTTEPTIKEEEPQTMEHDVAAAVAATTATATIKQEENSTVAVA | not soluble
2 | MSLAEPVLGDDGLYQLDWYLQSFLDLKEDLEGATAKGKRFAILWGLKGCPYCKKLHDVHMRDPAIESYIRDNFEIVHLNHIGAREVTDFDGSKLSEKAFAQAYGIRFTPSLQFFPESADGLAAKKPQDREVARMPGLLEPPEFLAMFKYVREKGYQSMPFTDWLKREGHHHHHH | soluble
3 | MSLAFVPHVPRHSRGDNPPSASTASPAVLTLTGERTIPDLDIENYWFRRHQVVYQRLAPRCTARDVLEAGCGEGYGADLIACVARQVIAVDYDETAVAHVRSRYPRVEVMQANLAELPLPDASVDVVVNFQVIEHLWDQARFVRECARVLRGSGLLMVSTPNRITFSPGRDTPINPFHTRELNADELTSLLIDAGFVDVAMCGLFHGPRLRDMDARHGGSIIDAQIMRAVAGEGHHHHHH | not soluble
4 | MSLAGVSVGTVDRVIHNRGRVSEENRKKVQTILEMVHYQPNLMARSLASKKQYHFVAITPSFTHGEYWEAISDGIDKAASEMESYNITITKLFFDQYNNKTFDDIVRNLLDEKVDGVLIATLFTDSVIRLSQELDRNEIPYVYVDSNIEGQHQLAYFGTESYDAGVIAARLLTDKISSTSDILMARIIHSGKNDSNQGKNRREGFCHYLKETGFTGNLHEVELKINDSVYNFIKLDEIFEANATIEGGIIFNSTCYILGNYLKARGMQKVKLVGYDLIERNTQLLSDGVITALVAQRPERQGYDGIKSLCNHLLFKQNPEKVNLMPIDILLKENLKYYLNNKEGHHHHHH | soluble
5 | MSLAHFSVLPPEINSLRMYLGAGSAPMLQAAAAWDGLAAELGTAASSFSSVTTGLTGQAWQGPASAAMAAAAAPYAGFLTTASAQAQLAAGQAKAVASVFEAAKAAIVPPAAVAANREAFLALIRSNWLGLNAPWIAAVESLYEEYWAADVAAMTGYHAGASQAAAQLPLPAGLQQFLNTLPNLGIGNQGNANLGGGNTGSGEGHHHHHH | not soluble
6 | MSLAHKFDPSKIKKLDDPSRLELFDPEKVLKEFGLKEGMTVLDVGTGAGFYLPYLSKMVGEKGKVYAIDVQEEMVNYAWEKVNKLGLKNVEVLKSEENKIPLPDNTVDFIFMAFTFHELSEPLKFLEELKRVAKPFAYLAIIDWKKEERDKGPPPEEVYSEWEVGLILEDAGIRVGRVVEVGKYCFGVYAMIVKQEEENPLMNVPFKIPPGEGHHHHHH | soluble
7 | MSLAIWAAGDTAGVATVVRTLRSAPRPPGAAMVVAPDGSVSGSVSGGCVEGAVYELAAEVAQTGIPRLEHYGVSDDTAFAVGLTCGGIIDVFVEPVSRATFPELGELADDIGAQRPVAIATVIAHPDERRVGRRLVIRPDTKSPVTGSLGSARADAAVIDDARGLLAVGRSEILEYGPDGQRRGEGMEVFVSSHAPRPRMLVFGAIDFAAALARQGSFLGYRVTVCDARAVFATPARFPTADDVVVAWPHRYLAAQAEAGGIDERTVICVLTHDPKFDVPVLEVALRLGVGYVGAMGSRKTHDDRMDRLRAAGLTDAELSRLSSPIGLDLGARTPEETAVSIAADIIARRWGGGGRPLADIAGRIHHDAQVAGEFKDYLTRHEGHHHHHH | soluble
8 | MSLAKELLIKNACVYDPLNGIEGEVMDIGVKDGKIVDPSEVDESKAKVIDAEGRLTMAGGVDIHAHVAGPKVNVGRIFRPEDSRRLQVAIKKLGTRSGTGFSVPSTTITGYLYAQMGYTTVMEAATPPLLTRHTHEEIRDTPILDEGAYTLMANNWILYEYIKEGELEKAAAYAAWLLRATKGFVIKMVNPGGTEAWGWGENVHSLDDPVPYFEITPAEIYQNYVKINEMLGLPHSIHIHPNLLGEPGNYEITTDSWDVIKKTGVEPNPEIGEREQVVHNTHVQFHSYGGDSWPTFESKAEEVAKYLNKNDHVTVDLGAVTLDETTTMTADGPLEWELQELTGFKWANYDVELETGSGVVPFIYSPKNPVHSVQWAIGLEIALLTENPWQVVISTDHPNAGPFIRYPRIIAWLMSEPYREEWIENVHPWVGQRAAIATIDREYTWTDITITTRAAPAKMLGLSDRIGHLGEGAYAHIAIYDIKPDEVDPSRDYEEVEKAMEQAWLVVKDGEIVVQEGVVVNEPVGRTYWVDVKVPEDLLEEVKKDLETKFRRYYSVNLGNYQVQDVYIPKEERIVIDARDRLSEGHHHHHH | soluble
9 | MSLAKIPVLEIFGPTIQGEGRVIGRKTMFVRTAGCDYRCSWCDSAFTWDGSAKGDIKLMTAEEIYDELKRIGGDLFNHVTISGGNPALIKGIQELVDLFQDKGIFSALETQGSKFQPWMTQIDDLTISPKPPSSTMTPDLKKLDEVITQCVPSSLNLKVVVFDDKDYDFAKMIHHRYPDIPFYLQVGNPYLSDSVDNHTEKLLERYEQLVDLVMQSNDMNHVYVLPQLHTLLWSNKKGVEGHHHHHH | soluble
10 | MSLAKLPVGGIWKARLVLNEMQWSPYIKVATFSADITLDVTDKNNGAIYLPAFGSATPRVDLNLRTQPLSTAPGGEVSGQANIDMCLYDGYNSNSPWLKVALSDLQTVAGRPADVFSLRRDGSSGTAAADRVDYRITLNYNNQPQTVNNGQDITLASVNSTLIRPVVMPGIAFPVICTPTPLTLNVLPFAKLSKAAGHFSGTLRVTLSADALAEGHHHHHH | not soluble
11 | MSLAKPFDAYISVTVKARGNGTVHLGPIHKRWSRLDMGQFLLGGSRFVDSQRQEFIYYFHPGDMKPPLNVYFSGYRTAEGFEGYYMMKRMNAPFLLIGDPRVEGGSFYIGSSEYEQGIINVIDETLEKLNFKSHELILSGLSMGSFGALYYGAQLNPQAIIVGKPLVNIGTIAEHMRLLRPEEFGTALDVLVSNEGDTSQASIQALNQKFWQTFQKKSLSQTVFAIAYMQHDDYDPHAFQELLPVLTAHQARVMNRSIPGRHNDDSEGHHHHHH | not soluble
12 | MSLAKSYNAGINIIPTPRSLEKREGSFKLSDGVSIGAITPEAKKIATYFAAKISLATGYDVKVEDKGEITLVLDSCATFSPEGYALDVESSRVQVTACSPRGLFYGMQSFLQLLPAEIESAGIVRDVDWEAPAANIIDSPRFAYRGIHMDPCRHFMTVEEVKKQIDVLSMFKINTIHWHLTDDQGWRIEIKQYPGLAEIGGRRIEGEGVEYGPFYYTQEEIKDIVSYAAERFITIIPELEIPGHELAAISAYPGLSCKGDPVTPRNIWGVEDIVMCPGKESVFTFLENVIDEMVALFPGTYFHIGGDECPKESWKSCPLCQKRILEEGIKPDGKHTSEQLLHTYVVERIGKYLARYDKKIIGWDEILEGKPDSTATIMSWRGDAGGISAALSGHDAIMSPGPNGLYLDYYQGDSKIEPIAIGGCSTLEKVYNYNPVPDTLVLIGKDHHIIGVQANNWSEYFYNNDIREYHMYPRSLALAEVAWTDAKRKNYVDFERRINNAYVRLDGHGVNYHIPLPEQPGGSCDHIAFTDSVSLEFTTSRPISLVYTLDGTEPGVSSEIYTSPLSFYQNGILKIASLLSSGKLSKVRTIQIEKQVLLPAVDVEGSFHGLNMEVTYGMFLNMQEFMKTGKSVDVSTDIRETGELTSFVPSTNSMRDVRQYAAVATGFIDIPENGEGHHHHHH | not soluble
13 | MSLAKTVLVTGASGFIGSHLVGRCLADGCRVKALVRKGNACIDSLRASGVEVIEGDVRDATAVDAAVRESDLVLHAAALTSDWGKMQEFIDINVGGTRNVCEASLRHGVGRLVHVSSFECFDHHLLGRIDEQTPYKARKQSYPDTKIGGTNEVWAAIKRGLSASILYPVWVYGPGDRTLFPLLADSILRRQLFFWARNAPMSMIYIDNLVDLTMLAASRPEAVGEAFMACDGEAITFEEVCRRVAVAIGSPVPSLHLPFGMVRSVAGVMEFVWRIAGSKKRPLLTRQAVDVLASRALADVSKARTMLGWQSHVPQEEGIRRTLEWLVTVDPARWKVKEGHHHHHH | soluble
14 | MSLALLLRVRRLRLDRAERAQGRQLLRVRAAAQEHTERQAAQRDYRDWRLAEEQRLFLACQAAMLDRRRLEAWQQQVGLLREKEAGLEQDCAEAAQRLEGERERLRQCRRELLERQRQLEKFAELERHVDAERQGLRERSEEGELEEFTRHETWPCSSLEHHHHHH | not soluble
15 | MSLALVYSRALSGMNAPLVEVEAHLANGLPHFNIVGLPDMEVKESRDRVRAAIIQSGFEFPAKKITVNLAPADLPKESGRFDLPIAIGILAASGQVAPEKLEEYEFAGELALSGLLRPVRGALAMAWQGMQAKRAFVLPEENAGQAAVMRGITVYGARSLGEVAAHLNGIEPLAQTECQVPQMPFEHGGQPDLCDVKGQHTARLALEIAAAGGHSLLMMGPPGTGKSMLSQRLPGILPPLTEDELVEVWALRSLLPNHQQQLDSNRPFRSPHHSASAAAMVGGGSDPRPGEISLAHHGVLFLDELPEFDRKVLEVLREPLENGEIHISRAARQAVYPAKFQLVAAMNPCPCGYLGHPVKPCRCTPESVARYRSKISGPLLDRIDLTIEVPSLSAAELMQQEAGESSASVLERVIAARDKQYARQGKVNAALSVSELDTSARIQKEAQEALGGLLEKLSLSARSFHRIMRVARTLADLAGDEEVGRSHVMKAIGFRRAL | not soluble
16 | MSLANGIEFNQNPASVFNSNSLDFELESQQLTQKNSSNTSSPLINLQNELAMITSSSLSETIEGLSLGYRKGSARKEEEGTTIEKLLNEMQELLTLTDSDKIKELSLKNSGLLEQHDPTLAMFGNMPKGEIVALISSLLQSKFVKIELKKKYAKLLLDLLGEDDWELALLSWLGVGELNQEGIQKIKKLYEKAKDEDSENGASLLDWFMEIKDLPEREKHLKVIIRALSFDLSYMSSFEDKVRTSSIISDLCRIIIFLSLNNYTDIIAISIKKDKDVILNEMLSIIEHVWLTEDWLLESPSRVSIVEDKHVYYFHLLKEFFASLPDACFIDNEQRSNTLLMIGKVIDYKEDVMEGHHHHHH | soluble
17 | MSLANLKVNLYGMEFLNPIMTAAGPGAKDGALCQEAAKGGAGAICTKTISVLPADVPRPCMAKTNSGFLNTELWSELPKEQWIEEEYKKVKETGLPVIVSMGYSAEQIAEVAPLVKPYADAVELSTHYVGTDVAPIVNALKAAKAVLDVPVFMKMSPHTDIQTIAKAVEEAGADGLVMINSFGPCMAIDVNTGYPIMGSKAGYGWLSGAPIRPLAIRCIYEASQVVNIPIIGVGGITCGKDVAEMMMAGASAVQVCTEAILKGPSIYGKIAKELNEFLDENGYADVNEIKGLTHKKMAARGFRTHSVAPVVDEGHHHHHH | soluble
18 | MSLAPFTTNPRRFDPYKNFKFRVKWDGRYVAGISKVGALKRSTEVIEHREGGDPSTGRKSPGRTKYDAISMERGVTHDLDFEQWANKVWNFGAGLGSEVSLADFRKDLIIDVFNEAGQKVMSYQVFRCWVSEYQALPDLDANANAIAIQSMKLENEGWLRDVAVAEPAEPSFTIPAEGHHHHHH | soluble
